One block for each binder: values may come before it.
Columns and labels:
Assay in all cases: SPR
GST-Bcl-2ΔTM S70E = GST-Bcl-2ΔTM S70E (UniProt P10415 1-219, S70E)
[1] = molecular target: Bcl-2ΔTM-His6 (unphosphorylated) (UniProt P10415 1-219)
GST-Bcl-2ΔTM (wt) = GST-Bcl-2ΔTM (wt) (UniProt P10415 1-219)
Sequence of GST-Bcl-2ΔTM (wt) (P10415 1-219, stated change not applied): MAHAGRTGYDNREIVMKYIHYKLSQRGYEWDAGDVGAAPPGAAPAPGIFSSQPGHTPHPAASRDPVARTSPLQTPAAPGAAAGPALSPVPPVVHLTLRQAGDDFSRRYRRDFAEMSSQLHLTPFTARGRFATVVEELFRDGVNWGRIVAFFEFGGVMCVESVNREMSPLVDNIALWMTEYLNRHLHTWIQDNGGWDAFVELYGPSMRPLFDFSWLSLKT

Sequence of Bcl-2ΔTM-His6 (unphosphorylated) (P10415 1-219, stated change not applied): as above
Sequence of GST-Bcl-2ΔTM S70E (P10415 1-219 S70E): as the sequence (P10415 1-219, stated change not applied) above, with S70E counted along it

- binding result (GST-Bcl-2ΔTM S70E): binds
- Kd [1]: ~150 nM
B1: His6-tagged BakΔTM (domain or fragment, UniProt Q16611 1-186, looked up)
chain: MASGQGPGPPRQECGEPALPSASEEQVAQDTEEVFRSYVFYRHQQEQEAEGVAAPADPEMVTLPLQPSSTMGQVGRQLAIIGDDINRRYDSEFQTMLQHLQPTAENAYEYFTKIATSLFESGINWGRVVALLGFGYRLALHVYQHGLTGFLGQVTRFVVDFMLHHCIARWIAQRGGWVAALNLGNG

- Kd (GST-Bcl-2ΔTM (wt)): 7 nM
B2: 26-mer Bim BH3 peptide (peptide)
peptide: RPEIWIAQELRRIGDEFNAYYARRVF

Reference: publication PMC3910374 (Cancer research, 2013)
